Experimental data as given in patent US20240270826A1 (NATIONAL RESEARCH COUNCIL OF CANADA, published 2024).

How the values were obtained:
[1] = target: Human SARS-CoV-2_Wuhan S (SmT1) (SARS-CoV-2 (Wuhan), UniProt P0DTC2 14-1208); assay: flow cytometry SVNA: VHH-Fc inhibits S binding to ACE2 on Vero E6 cells
Human SARS-CoV S = Human SARS-CoV S (SARS-CoV, UniProt P59594 14-1190); assay: as above
SARS-CoV spike (S) = SARS-CoV spike (S) (SARS-CoV, UniProt P59594 14-1195); assay: ELISA
[2] = target: T1, SARS-CoV-2 S1 (aa16-685) (Wuhan) (SARS-CoV-2 Wuhan, UniProt P0DTC2 16-685); assay: ELISA
T1 construct: NRC; FLAG, 6xHis tags

[3] = target: T2, SARS-CoV-2 S1-NTD (aa16-305) (SARS-CoV-2 Wuhan, UniProt P0DTC2 16-305); assay: ELISA
[4] = target: T3, SARS-CoV-2 S on CHO-S cells (SARS-CoV-2, UniProt P0DTC2 14-1273); assay: flow cytometry, CHO-S cells
T3 construct: whole, on cells

[5] = target: T4, SARS-CoV-2 spike trimer S (Wuhan, SmT1) (SARS-CoV-2 Wuhan); assay: ELISA, coated antigen, apparent EC50
T4 construct: extracellular domain

[6] = target: T1, SARS-CoV-2 S1 (aa16-685) (Wuhan); assay: ELISA, coated antigen, apparent EC50
[7] = target: T2, SARS-CoV-2 S1-NTD (aa16-305); assay: ELISA, coated antigen, apparent EC50
[8] = target: T5, SARS-CoV-2 S2 (aa686-1208) (Wuhan) (SARS-CoV-2 Wuhan, UniProt P0DTC2 686-1208); assay: ELISA
T5 construct: NRC; FLAG, 6xHis tags

[9] = target: T6, SARS-CoV-2 spike protein S on live virus, Wuhan (strain SARS-CoV-2/Canada/VIDO-01/2020) (SARS-CoV-2 (Wuhan), UniProt P0DTC2 14-1273); assay: cell-based or functional assay
[10] = target: T6, SARS-CoV-2 spike protein S on live …; assay: cell-based or functional assay; remark: listed apart in the source
[11] = target: Human SARS-CoV-2_Wuhan S (SmT1) (SARS-CoV-2 (Wuhan), UniProt P0DTC2 14-1208); assay: flow cytometry SVNA, VHH-Fc vs biotin-S binding to Vero E6 ACE2

B1: NRCoV2-18 VHH-Fc (Fc fusion)
chain: EVQLVESGGGLVQAGGSLRLSCVASGITISGYNMAWWRQTRGKQTERVAFINSGGSTTYSDSVKGRFTISRDNGKNTAYLQMNSLNAEDTADYFCSLHTSHDYWGQGTQVTVSS
notes: bivalent VHH-Fc
- IC50 [1]: 9.1 nM
- IC50 (Human SARS-CoV S): 12.7 nM

B2: NRCoV2-MRed11 VHH-Fc (Fc fusion)
chain: EVQLVESGGGLVQAGGSLRLSCAASGFTFSSYAMSWHRQAPGKGLEWVSAINSGGGSTSYADSVKGRFAISRDNAKNTLYLQMNSLKPEDTAVYYCATTISDGSSWSTKSYRGQGTQVTVSS
notes: bivalent VHH-Fc
- binding result (SARS-CoV spike (S)): no binding (tested: 13 nM)
- binding result [2]: no binding (tested: 13 nM)
- binding result [3]: no binding (tested: 13 nM)
- Bmax [4]: 3250
- EC50 [4]: 2.9 nM

B3: NRCoV2-SR16 VHH-Fc (Fc fusion)
chain: QVQLVQSAGGLVQAGGSLRLSCVVSGTTFSRYHMGWHRQAPGKQRDFVAGISTSGAVTYADSAKGRFTISRDNAKNTVYLEMNSLKLEDTALYYCNTGGWDYRSSTFIMGLNWGQGTQVTVSS
notes: bivalent
- EC50 [5]: 0.59 nM
- EC50 [6]: 2.7 nM
- EC50 [7]: 0.36 nM

B4: NRCoV2-17 VHH-Fc (Fc fusion)
chain: EVQLQQSGGGLVQTGGSLRLSCAAAGSPFSQLAMSWYRQISGKERAWVASISPTGNRSYSKIAKGRFTISRDNAKNTVTLQMTSLKPEDTAAYICQAANVNGGDYWGQGTQVTVSS
notes: bivalent VHH-Fc
- binding result (SARS-CoV spike (S)): no binding (tested: 13 nM)
- binding result [8]: no binding (tested: 13 nM)
- binding result [3]: no binding (tested: 13 nM)
- Bmax [4]: 19000
- EC50 [4]: 0.4 nM

B5: NRCoV2-S2B3 VHH-Fc (Fc fusion)
chain: QVQLVDSGGGLVQAGGSLRLSCAASASTFGDSAMGYYRQAPGKQRELVATISTGSNTNYADSVKGRFTISRDDAKNTVYLQMNSLKPEDTAVYYCNYRSIYYGQNFWGQGTQVTVSS
notes: bivalent VHH-Fc
- binding result (SARS-CoV spike (S)): no binding (tested: 13 nM)
- Bmax [4]: 6660
- EC50 [4]: 6.5 nM

B6: NRCoV2-MRed07 VHH-Fc (Fc fusion)
chain: EVQLVESGGGLVQPGGSLTLSCAASGSIGPFNTMGWYRQAPGNQREPAAIITRGGVTNYADSVKGRFTISRDNAKNAVYLQMDSLKPDDTAVYYCYANYGWAIPYWGNGTQVTVSS
notes: bivalent
- EC50 [5]: 1.2 nM
- EC50 [6]: 1.5 nM
- EC50 [7]: 0.8 nM

B7: NRCoV2-SR13 VHH-Fc (Fc fusion)
chain: EVQLVESGGGLVTTGGSLRLSCATSGSRFGSKHMAWYRQAPGKQRDLVAAISSGGSTHYGSSVKGRFTISRDNAKSTVYLQMNSLNPEDTAVFYCNMGGWDYRSNTYIPGSRSDYWGQGTQVTVSS
notes: bivalent VHH-Fc
- IC50 [1]: 7.7 nM
- IC50 (Human SARS-CoV S): 15 nM

B8: NRCoV2-SR13 VHH-Fc (Fc fusion)
chain: B7 chain
notes: bivalent
- EC50 [5]: 0.43 nM
- EC50 [6]: 0.43 nM
- EC50 [7]: 0.23 nM

B9: NRCoV2-MRed03 VHH-Fc (Fc fusion)
chain: EVQLVESGGGLVQPGGSLRLSCAAIGFTLDYYAIGWFRQAPGKEREGVSCISSSDGSTYYADSVKGRFTISRDNAKNTVYLQMNSLKPEDTAVYYCATDAFATCDSWYAQIAQYDFRGQGTQVTVSS
notes: bivalent
- EC50 [5]: 0.2 nM
- EC50 [6]: 0.48 nM
- EC50 [7]: 0.7 nM

B10: NRCoV2-MRed06 VHH-Fc (Fc fusion)
chain: EVQLVESGGGLVQAGGSLRLSCAASGFTLAYYAIGWFRQAPGKEREGVSCISSSDGSAHYADSVKGRFTISRDNAKNTVSLQMNSLKPEDTAVYYCATDSFSSCSDYESGMDFWGKGTQVTVSS
notes: bivalent
- EC50 [5]: 0.4 nM
- EC50 [6]: 0.59 nM
- EC50 [7]: 0.4 nM

B11: NRCoV2-SR03 VHH-Fc (Fc fusion)
chain: AVQLVDSGGGLVQAGGSLRLSCAASGSIFSNNHMGWYRQAPGKQRELVAAISSGGKTNYADFAKGRFTISRDNAKNMVYLQMNSLKPEDTAVYYCNRGGWEYRSSYYIMGPHWGQGTQVTVSS
notes: bivalent VHH-Fc
- binding result (SARS-CoV spike (S)): no binding (tested: 13 nM)
- binding result [8]: no binding (tested: 13 nM)
- Bmax [4]: 19900
- EC50 [4]: 7.1 nM

B12: NRCoV2-SR04 VHH-Fc (Fc fusion)
chain: QVQLVESGGGLVQAGGSLRLSCAASGRTFSSHTVGWYRQAPGKQRDLVAAISMGGNTNYADYADSVKGRFTISRDNAKNTLYLQMNSLKPEDTAVYYCNTAALVGNRLLPMATITWGQGTQVTVSS
notes: bivalent VHH-Fc
- binding result (SARS-CoV spike (S)): no binding (tested: 13 nM)
- binding result [8]: no binding (tested: 13 nM)
- Bmax [4]: 10100
- EC50 [4]: 8.2 nM

B13: NRCoV2-SR04 VHH-Fc (Fc fusion)
chain: B12 chain
notes: bivalent
- EC50 [5]: 0.2 nM
- EC50 [6]: 0.25 nM
- EC50 [7]: 0.17 nM

B14: NRCoV2-21 VHH-Fc (Fc fusion)
chain: EVQLVESGGGLVQPGGSLRLSCATSGFTLDYYAIGWFRQAPGKEREWVSCISSGGSTFYVDSVKGRFTISRDNAKDTVYLQMSSLKPDDTAVYYCAADHRGRSLRFGCSSSTTDYLYWGQGTQVTVSS
notes: bivalent VHH-Fc
- binding result (SARS-CoV spike (S)): no binding (tested: 13 nM)

B15: NRCoV2-MRed04 VHH-Fc (Fc fusion)
chain: EVQLVESGGGLVQPGRSLRLSCAASGNSFSISTMGWFRQAPGKERELVASIWSDTTTSYADSVKGRFTISTDNTRTKVYLQMSSLNPEDTAVYYCAADRGFVVRGQYDYWGQGTQVTVSS
notes: bivalent VHH-Fc
- IC50 [1]: 5 nM
- IC50 (Human SARS-CoV S): 24.6 nM

B16: NRCoV2-11 VHH-Fc (Fc fusion)
chain: EVQLVSSGGGLVQPGGSLRLSCAASGSSLDSYSVSWFRQAPGKEREWISFISRYYSSTYYTDSVKGRFTTSRDGDQKTVHLQMNSLKPEDTAVYYCAARSRDFSSPFSATDTYTSWGQGTQVTVSS
notes: bivalent VHH-Fc
- IC50 [1]: 3.2 nM
- IC50 (Human SARS-CoV S): 7.7 nM

B17: NRCoV2-02 VHH-Fc (Fc fusion)
chain: EVQLVESGGGLVQAGGSLRLSCAASGFTFSNYAMNWVRQAPGKGLEWVSGISGRGDDTRYADSVKGRFTISRDNAKNTLFLQMRSLRPEDTGVYRCTKGPDLYYFGSGYSDRGQGTQVTVSS
notes: bivalent VHH-Fc
- MN100 [9]: ≤ 0.01 nM
- LVNA IC50 [10]: 0.12 nM
- IC50 [11]: 5 nM
- IC99 [11]: 30 nM
- Imax % [11]: 94%

B18: NRCoV2-15 VHH-Fc (Fc fusion)
chain: EVQLVSSGGGLVEAGGSLRLSCIASGSTSGRNTMGWFRQAPGKQREWVAIVSTSGATNYAGSVKGRFTLSRDNAKNAVYLQMNNLKPEDTAVYYCYAAYGGGGDYWGQGTQVTVSS
notes: bivalent VHH-Fc
- binding result (SARS-CoV spike (S)): no binding (tested: 13 nM)
- binding result [8]: no binding (tested: 13 nM)
- binding result [3]: no binding (tested: 13 nM)
- Bmax [4]: 21100
- EC50 [4]: 0.8 nM

B19: NRCoV2-07 VHH-Fc (Fc fusion)
chain: QVQLVQSGGGLVQPGGSLRLSCAASGVTLDYYAIGWFRQAPGKEREAVSCISSNGRRNHYVASVRGRFTISRDNAKSTVYLQMNSLKPEDTAVYYCAAVQDVHGDNYYCTSPNEYNVWGQGTQVTVSS
notes: bivalent VHH-Fc
- IC50 [1]: 4.7 nM
- IC50 (Human SARS-CoV S): 4.2 nM

B20: NRCoV2-20 VHH-Fc (Fc fusion)
chain: EVQLQQSGGGLVQPGGSLRLSCAASGRTFSNYVVGWFRQAPQAPGKDHEFVAVISGSDTETYYADSVKGRFTISRDNAKNTVYLQMNSLKPEDTAVYYCAADRGMSYYYTRATEYYYWGQGTQVTVSS
notes: bivalent VHH-Fc
- IC50 [1]: 6.5 nM
- IC50 (Human SARS-CoV S): 10.3 nM

B21: NRCoV2-12 VHH-Fc (Fc fusion)
chain: EVQLQQSGGGLVQAGGSLRLSCAASGRTFRNYVMGWFRQAPQAPGKDHEFVAAISWGGTEIYYADSVKGRFTISRDNAKNTVYLQMNSLKPEDTAVYYCAADRGLSYYYTRTTEYNYWGQGTQVTVSS
notes: bivalent VHH-Fc
- IC50 [1]: 3.5 nM
- IC50 (Human SARS-CoV S): 3.1 nM

B22: NRCoV2-SR01 VHH-Fc (Fc fusion)
chain: EVQLVQSGGGSVQAGGSLRLSCVASGFTFDNYAIGWFRQAPGKEREGVSCISGNGGVTIYADSVKGRFTISRDNAKNLVYLQMNSLKPEDTAVYYCAATGIRSTWSVYGCSRLAGPYDYWGQGTQVTVSS
notes: bivalent VHH-Fc
- IC50 [1]: 4.2 nM
- IC50 (Human SARS-CoV S): 5.1 nM
